Experimental data: publication PMC3229553

Target: Orb (Drosophila (endogenous in ovaries))
Assay: co-IP; wild type ovary extract precipitated with Orb antibody coupled to protein A/G beads, room temperature 2 hours; Co-IP buffer 20 mM Hepes pH 7.5, 150 mM NaCl, 2.5 mM MgCl2, 250 mM sucrose, 0.05% NP40, 0.5% Triton-X, with RNase A; Western blot for Cup; HA antibody as negative control

- percent of Cup pulled down: 10%
B1: Cup (natural protein)
chain: MQMAEAEQENGAGALKIATNAGATDRPAHQQLPLPVEDQQDEVLTPAEKGKFEYPPPPPPPTPVQAPLATKATALNASQEHDDDEANSEKWEDPCAPPPPPPLPTSAFLATGLGYLKLPAFKLKDALEKAITKLEANKRTLKASPESSRSIKNKNVVALEMLPRRSNPETIGDGSMLASTSTAVMLQTKKPAVIVEMERRCKIINLLAKQNQILESISGEAIPMHGPSKHLHEDEGLTLQVLSARASTPYTQPSSMLSCTAVSCDLEHDSPRKQVASKEAVPEQQSSQVQQKRPPSTGIHKPGSLRAPKAVRPTTAPVVSSKPVKSYTRSRLMDIRNGMFNALMHRSKESFVMPRIATCDDIELEGRLRRMNIWRTSDGTRFRTRSTTANLNMNNNNNNECMPAFFKNKNKPNLISDESIIQSQPPQPQTEFQDPAIVNQRRIGSGRLNHSKWGYNDEDYHSYHNGKSQHMEEVNSKNSKNMTVLQFFDNGEISSQPQRRPNTPVMGMSINRSENDTLHSNESSEDLSRANENYVKRVMSGFLVVSKPKSRDVEDRHHRRYRNQNEEPEWFSCGPTSRLDTIELCGFDEDEEKMLKEGNKNHGLGETERETSKQKMDHKYKWTHAEPMGRSKYMPKHDTNNNHNVENMNNVMATEHQQQKEEKRPGSGRSFQFDKFNQSQQNYESSSYVNHQQPPQTQPQQMQQQSNTNTNNSKFMSFFANEGNSSSSSLNEFFKQAINQGHGNNPEQPKSLGHIGQMPSVDQLEAKWRRNSLNNVGETANKQTDNFQKLIGSLSSAKPQSQAVGYDAISNFIMQQQQYQQQQQKQHLIIQQQQQHTAFLASLQLKAILGRADTQLLLLRLTKGEISKHGLLVQLANPRLTDMDREAITAVLQFTNTQQQQQQHKQQLDMLSSTVIASQLQNLHNLAIVQQTLAARQQPQHNPQTQAPHQLSQEDLQAHANVIMRNAVMKRKIEEQTSKLINGGAKHQAQQQYLNRGQQRQARPDANSNALLHALISGGGNNHASGYPMNGQPQKHHSNLRFGDNQNFQSFESNQPHFATQYKQQYQQSQQQHPHQQPQQLNSLHQNNAGAVNSFNKAQMQAQSAISMLPNSGDEFH
